According to patent US20260297165 (published 2026):
Numbering of substitutions follows the chain as printed. Numbers in names are those of the source.

B1: Vector KRE sCD59-6xHis wild-type (protein)
chain: MGIQGGSVLFGLLLVLAVFCHSGHSLQCYNCPNPTADCKTAVNCSSDFDACLITKAGLQVYNKCWKFEHCNFNDVTTRLRENELTYYCCKKDLCNFNEQLENHHHHHH
B2: sCD59 (His)10 wild-type, commercial (protein)
chain: LQCYNCPNPTADCKTAVNCSSDFDACLITKAGLQVYNKCWKFEHCNFNDVTTRLRENELTYYCCKKDLCNFNEQLEN
B3: Vector MTC sCD59 T51G-6xHis (protein)
chain: B1 chain with T76G
B4: sCD59 wild-type, in-house purified (protein)
chain: MGIQGGSVLFGLLLVLAVFCHSGHSLQCYNCPNPTADCKTAVNCSSDFDACLITKAGLQVYNKCWKFEHCNFNDVTTRLRENELTYYCCKKDLCNFNEQLEN
B5: Vector MTE sCD59 S20G,T51G-6xHis (protein)
chain: B1 chain with S45G, T76G
B6: Vector KRG vsCD59 N18Q-6xHis (protein)
chain: B1 chain with N43Q
B7: Vector MTA sCD59 S20G-6xHis (protein)
chain: B1 chain with S45G
B8: Vector KRM vsCD59 K38R-6xHis (protein)
chain: B1 chain with K63R

What follows are binders tested against C9 (human, UniProt P02748) (assay: other (MSD ECL)).
C9, sequence (P02748 22-559): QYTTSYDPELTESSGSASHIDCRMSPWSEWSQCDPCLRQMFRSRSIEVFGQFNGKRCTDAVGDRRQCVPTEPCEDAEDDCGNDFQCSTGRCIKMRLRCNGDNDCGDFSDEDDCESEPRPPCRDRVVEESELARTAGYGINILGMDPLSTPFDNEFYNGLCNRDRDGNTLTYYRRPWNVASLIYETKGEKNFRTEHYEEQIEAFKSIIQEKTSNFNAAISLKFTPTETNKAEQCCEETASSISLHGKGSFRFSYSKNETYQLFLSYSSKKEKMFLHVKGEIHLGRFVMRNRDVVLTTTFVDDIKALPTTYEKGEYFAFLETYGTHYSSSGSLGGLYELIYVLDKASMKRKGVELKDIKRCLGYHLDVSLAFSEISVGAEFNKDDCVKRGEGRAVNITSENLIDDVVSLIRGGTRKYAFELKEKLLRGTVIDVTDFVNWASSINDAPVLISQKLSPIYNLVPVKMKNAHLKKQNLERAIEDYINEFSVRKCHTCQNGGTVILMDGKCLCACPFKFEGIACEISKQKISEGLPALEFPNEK

| Binder | Kd [nM] |
| --- | --- |
| B1 | 34.3 |
| B2 | 33.1 |
| B3 | 23.7 |
| B4 | 38.6 |
| B5 | 28.9 |
| B6 | 16 |
| B7 | 46.1 |
| B8 | 39 |
